In the Immune Epitope Database (IEDB) one finds Kd data, which are given here for 18 sequences.

Test [1] deals with HLA-B*18:01. Briefly: IEDB peptide-MHC binding, purified MHC/competitive/radioactivity; filed as Kd, often an IC50 or EC50 that approximates it; ≥ and ≤ were set here for values at or beyond the usual limits of such assays.
Test [2] deals with HLA-B*40:01. Described as above.
The target in test [3] is HLA-B*40:02. The description is as above.
Test [4] concerns the target HLA-B*44:02. The test is described as above.
For test [5], the target named is HLA-B*44:03. The description is as above.
In test [6] the target is HLA-B*45:01. Described as above.
Test [7] has as its target HLA-A*02:12. The test is described as follows: IEDB peptide-MHC binding, purified MHC/direct/fluorescence; filed as Kd, often an IC50 or EC50 that approximates it; ≥ and ≤ were set here for values at or beyond the usual limits of such assays. The following applies: source organism: Choclo virus.
The target in test [8] is HLA-A*03:01. The test is described as above. The following applies: source organism: Choclo virus.
The target of test [9] is HLA-B*58:01. Described as above. The following applies: source organism: Orthohantavirus andesense.
Test [10] concerns the target HLA-A*26:01. Briefly: IEDB peptide-MHC binding, purified MHC/competitive/fluorescence; filed as Kd, often an IC50 or EC50 that approximates it; ≥ and ≤ were set here for values at or beyond the usual limits of such assays. The following applies: source organism: Choclo virus.
The target in test [11] is HLA-B*15:01. The description is as above. The following applies: source organism: Choclo virus.
In test [12] the target is HLA-B*15:17. The test is described as above. The following applies: source organism: Choclo virus.
The target in test [13] is HLA-B*18:01. The description is as above. The following applies: source organism: Choclo virus.
For test [14], the target named is HLA-B*27:03. The test is described as above. The following applies: source organism: Choclo virus.
The target of test [15] is HLA-B*39:01. Described as above. The following applies: source organism: Choclo virus.
For test [16], the target named is HLA-B*46:01. The test is described as above. The following applies: source organism: Choclo virus.
For test [17], the target named is HLA-B*51:01. The description is as above. The following applies: source organism: Choclo virus.
Test [18] addresses HLA-B*57:01. The description is as above. The following applies: source organism: Choclo virus.
The mark [19] stands for this setting: source organism: Mammarenavirus lassaense.
Where [20] appears, read: source organism: Mammarenavirus brazilense.
Setting [21] is: source organism: SARS coronavirus Tor2.
Setting [22] is: source organism: Mammarenavirus choriomeningitidis.
Where [23] appears, read: source organism: Mammarenavirus machupoense.
Setting [24] is: source organism: Lymphocytic choriomeningitis virus (strain Armstrong).
Setting [25] is: source organism: Mammarenavirus juninense.

Take FESYVRPFVA: the Kd (usually the concentration at which binding is half-saturated) in [1] (setting [19]) was 982 nM; in test [2] (setting [19]), 5420 nM; in test [3] (setting [19]) it was 19.9 nM; in [4] (setting [19]) it was no less than 70200 nM; in test [5] (setting [19]), no less than 32000 nM; in test [6] (setting [19]) it was 151 nM.

As for FEEHLAPFMS, the Kd is 3380 nM in [1] (setting [20]); 2360 nM in [2] (setting [20]); 2570 nM in test [3] (setting [20]); no less than 47400 nM in test [4] (setting [20]); no less than 70100 nM in test [5] (setting [20]); 8780 nM in [6] (setting [20]).

In the case of GERSRCYSL, the Kd is no less than 77500 nM in [1] (setting [20]); 3380 nM in test [2] (setting [20]); 51.2 nM in test [3] (setting [20]); no less than 77900 nM in test [4] (setting [20]); no less than 78100 nM in [5] (setting [20]); no less than 77700 nM in test [6] (setting [20]).

For QELYSPLFLI, the Kd in test [1] (setting [21]) is 4910 nM; in test [2] (setting [21]) it was 690 nM; in test [3] (setting [21]) it was 10.7 nM; in [4] (setting [21]) it was 7.01 nM; in test [5] (setting [21]) it was 7.36 nM; in test [6] (setting [21]) it was 45.6 nM.

Regarding ADYLSCSHF, the Kd in test [1] (setting [22]) is no less than 77500 nM; in test [2] (setting [22]), no less than 47000 nM; in test [3] (setting [22]), 254 nM; in [4] (setting [22]) it was 319 nM; in test [5] (setting [22]), 2740 nM; in test [6] (setting [22]), 17700 nM.

Consider REGVFVFNGT, for which the Kd was no less than 70500 nM in test [1] (setting [21]); 677 nM in [2] (setting [21]); 274 nM in [3] (setting [21]); 1600 nM in test [4] (setting [21]); 306 nM in test [5] (setting [21]); 222 nM in [6] (setting [21]).

Turning to GDVELLGTT, the Kd in test [1] (setting [19]) is no less than 77500 nM; in test [2] (setting [19]) it was no less than 33700 nM; in [3] (setting [19]) it was 5920 nM; in test [4] (setting [19]), no less than 41800 nM; in test [5] (setting [19]), no less than 52100 nM; in test [6] (setting [19]) it was 16600 nM.

With SEAPNAKEEI, the Kd in [1] (setting [21]) was no less than 27200 nM; in [2] (setting [21]) it was 1180 nM; in test [3] (setting [21]), 3350 nM; in test [4] (setting [21]), 105 nM; in test [5] (setting [21]), 145 nM; in [6] (setting [21]), 319 nM.

In the case of FEKMVSLLSV, the Kd in test [1] (setting [21]) worked out at 145 nM; in test [2] (setting [21]), 25.2 nM; in [3] (setting [21]), 23.7 nM; in [4] (setting [21]), 3280 nM; in test [5] (setting [21]), 6180 nM; in [6] (setting [21]) it was 784 nM.

Turning to VMGVIGFGF, the Kd in [7] is no less than 20000 nM; in [8], no less than 20000 nM; in test [9], 2190 nM; in test [10] it was no less than 20000 nM; in test [11], no less than 20000 nM; in [12] it was no less than 20000 nM. Also, the Kd in test [13], in test [14], in test [15], in [16], in [17] and in test [18] was no less than 20000 nM in each case.

As for VEAVMYMGT, the Kd in test [1] (setting [21]) is 2470 nM; in [2] (setting [21]) it was no less than 31300 nM; in [3] (setting [21]), 1320 nM; in [4] (setting [21]), no less than 21900 nM; in test [5] (setting [21]) it was 6510 nM; in test [6] (setting [21]), 616 nM.

On to ADMSKLLNL, for which the Kd in [1] (setting [23]) is no less than 77500 nM; in [2] (setting [23]), 6250 nM; in test [3] (setting [23]), 339 nM; in [4] (setting [23]), 5440 nM; in test [5] (setting [23]) it was no less than 51400 nM; in test [6] (setting [23]) it was no less than 77700 nM.

For AEALGPFQS, the Kd in test [1] (setting [24]) was no less than 77500 nM; in test [2] (setting [24]), no less than 32100 nM; in test [3] (setting [24]), 4960 nM; in [4] (setting [24]) it was 1320 nM; in test [5] (setting [24]), 6970 nM; in [6] (setting [24]), 132 nM.

Turning to YDFNKLTAL, the Kd in test [1] (setting [19]) was 6780 nM; in [2] (setting [19]) it was 5340 nM; in test [3] (setting [19]), 19.8 nM; in test [4] (setting [19]), 2270 nM; in test [5] (setting [19]), 9170 nM; in test [6] (setting [19]) it was no less than 77700 nM.

As for SEILRTLGF, the Kd in [1] (setting [25]) was 115 nM; in [2] (setting [25]), 4180 nM; in test [3] (setting [25]), 56.1 nM; in [4] (setting [25]), 18.7 nM; in test [5] (setting [25]), 37.3 nM; in test [6] (setting [25]), 7590 nM.

As for SEAQMSIQL, the Kd came out at 1100 nM in test [1] (setting [19]); 11600 nM in [2] (setting [19]); 15.3 nM in [3] (setting [19]); 161 nM in [4] (setting [19]); 99.3 nM in test [5] (setting [19]); 542 nM in [6] (setting [19]).

Turning to FELTSMKYFV, the Kd in test [1] (setting [21]) is no less than 37900 nM; in [2] (setting [21]) it was 2140 nM; in test [3] (setting [21]) it was 24.2 nM; in [4] (setting [21]) it was 7160 nM; in test [5] (setting [21]), 4470 nM; in test [6] (setting [21]), 7780 nM.

For the sequence FDAAASGGL, the Kd is no less than 65200 nM in test [1] (setting [19]); no less than 28500 nM in test [2] (setting [19]); 3020 nM in [3] (setting [19]); no less than 77900 nM in [4] (setting [19]); no less than 78100 nM in test [5] (setting [19]); no less than 32200 nM in [6] (setting [19]).
